Laboratory results from the Immune Epitope Database (IEDB).
One block for each sequence: values may come before it.

Columns and labels:
HLA-B*40:01 = assay: IEDB peptide-MHC binding, purified MHC/competitive/fluorescence; filed as Kd, often an IC50 or EC50 that approximates it; ≥ and ≤ were set here for values at or beyond the usual limits of such assays; details: source organism: Escherichia coli B7A
HLA-B*15:42 = assay: as above
HLA-B*39:01 = assay: as above
HLA-B*83:01 = assay: as above
HLA-A*24:02 = assay: as above
HLA-B*27:20 = assay: as above
HLA-B*45:06 = assay: as above
HLA-A*02:01 [1] = assay: as above; details: source organism: Salmonella enterica subsp. enterica serovar Typhi
HLA-A*32:07 = assay: as above
HLA-B*15:01 = assay: as above
HLA-B*27:05 = assay: as above; details: source organism: Salmonella enterica subsp. enterica serovar Typhi
HLA-B*40:13 = assay: as above
HLA-C*07:02 = assay: IEDB peptide-MHC binding, purified MHC/direct/fluorescence; filed as Kd, often an IC50 or EC50 that approximates it; ≥ and ≤ were set here for values at or beyond the usual limits of such assays; details: source organism: Salmonella enterica subsp. enterica serovar Typhi str. CT18
HLA-C*14:02 = assay: IEDB peptide-MHC binding, purified MHC/competitive/fluorescence; filed as Kd, often an IC50 or EC50 that approximates it; ≥ and ≤ were set here for values at or beyond the usual limits of such assays
HLA-B*35:01 = assay: as above; details: source organism: Yersinia pestis Nepal516
HLA-A*68:23 = assay: as above
HLA-C*04:01 [2] = assay: as above
HLA-A*32:15 = assay: as above
HLA-C*06:02 [3] = assay: IEDB peptide-MHC binding, purified MHC/direct/fluorescence; filed as Kd, often an IC50 or EC50 that approximates it; ≥ and ≤ were set here for values at or beyond the usual limits of such assays
HLA-C*15:02 = assay: as above
HLA-B*48:01 = assay: IEDB peptide-MHC binding, purified MHC/competitive/fluorescence; filed as Kd, often an IC50 or EC50 that approximates it; ≥ and ≤ were set here for values at or beyond the usual limits of such assays; details: source organism: Burkholderia mallei SAVP1
HLA-A*24:03 = assay: as above
HLA-C*04:01 [4] = assay: IEDB peptide-MHC binding, purified MHC/direct/fluorescence; filed as Kd, often an IC50 or EC50 that approximates it; ≥ and ≤ were set here for values at or beyond the usual limits of such assays
HLA-A*03:01 [5] = assay: IEDB peptide-MHC binding, purified MHC/competitive/fluorescence; filed as Kd, often an IC50 or EC50 that approximates it; ≥ and ≤ were set here for values at or beyond the usual limits of such assays; details: source organism: Cryptosporidium parvum Iowa II
HLA-C*12:03 = assay: IEDB peptide-MHC binding, purified MHC/direct/fluorescence; filed as Kd, often an IC50 or EC50 that approximates it; ≥ and ≤ were set here for values at or beyond the usual limits of such assays; details: source organism: Bacillus anthracis str. A0488
HLA-A*02:11 = assay: IEDB peptide-MHC binding, purified MHC/competitive/fluorescence; filed as Kd, often an IC50 or EC50 that approximates it; ≥ and ≤ were set here for values at or beyond the usual limits of such assays; details: source organism: Haemophilus influenzae
HLA-A*02:06 = assay: as above; details: source organism: Haemophilus influenzae
HLA-A*69:01 = assay: IEDB peptide-MHC binding, purified MHC/direct/fluorescence; filed as Kd, often an IC50 or EC50 that approximates it; ≥ and ≤ were set here for values at or beyond the usual limits of such assays; details: source organism: Haemophilus influenzae
HLA-A*02:01 [6] = assay: as above
HLA-A*01:01 = assay: as above; details: source organism: Haemophilus influenzae
HLA-A*26:01 = assay: IEDB peptide-MHC binding, purified MHC/competitive/fluorescence; filed as Kd, often an IC50 or EC50 that approximates it; ≥ and ≤ were set here for values at or beyond the usual limits of such assays; details: source organism: Orthohantavirus sinnombreense
HLA-A*03:19 = assay: as above; details: source organism: Orthohantavirus sinnombreense
HLA-B*51:01 = assay: as above; details: source organism: Orthohantavirus sinnombreense
HLA-B*27:03 = assay: as above; details: source organism: Orthohantavirus sinnombreense
HLA-C*06:02 [7] = assay: as above; details: source organism: Orthohantavirus sinnombreense
HLA-B*18:01 = assay: as above; details: source organism: Orthohantavirus sinnombreense
HLA-C*05:01 = assay: IEDB peptide-MHC binding, purified MHC/direct/fluorescence; filed as Kd, often an IC50 or EC50 that approximates it; ≥ and ≤ were set here for values at or beyond the usual limits of such assays; details: source organism: Orthohantavirus sinnombreense
HLA-A*03:01 [8] = assay: as above; details: source organism: Limestone Canyon virus
[9] = source organism: Salmonella enterica subsp. enterica serovar Typhi
[10] = source organism: Yersinia pestis Nepal516
[11] = source organism: Burkholderia mallei SAVP1
[12] = source organism: Escherichia coli str. K-12 substr. MG1655
[13] = source organism: Encephalitozoon cuniculi GB-M1
[14] = source organism: Cryptosporidium parvum Iowa II
[15] = source organism: Bacillus anthracis str. A0488
[16] = source organism: Orthohantavirus sinnombreense

Kd (HLA-B*40:01): 1.7 nM
Sequence: GEHVPEIIL

Sequence: KQLELFWVI
Kd (HLA-B*15:42; [9]): 2470 nM | Kd (HLA-B*39:01; [9]): 6 nM | Kd (HLA-B*83:01; [9]): ≥ 5000 nM | Kd (HLA-A*24:02; [9]): 0.2 nM | Kd (HLA-B*27:20; [9]): 1.3 nM | Kd (HLA-B*45:06; [9]): 833 nM | Kd (HLA-A*02:01 [1]): ≤ 1 nM | Kd (HLA-A*32:07; [9]): 1.1 nM | Kd (HLA-B*15:01; [9]): 497 nM | Kd (HLA-B*27:05): 66.1 nM | Kd (HLA-B*40:13; [9]): 4.2 nM | Kd (HLA-C*07:02): ≥ 20000 nM

Sequence: MMMSTAVAF
Kd (HLA-B*15:42; [10]): ≥ 5000 nM | Kd (HLA-C*14:02; [10]): 1.1 nM | Kd (HLA-B*35:01): 0.6 nM | Kd (HLA-A*68:23; [10]): 650 nM | Kd (HLA-B*83:01; [10]): ≥ 5000 nM | Kd (HLA-B*45:06; [10]): ≥ 5000 nM | Kd (HLA-A*32:07; [10]): 94.5 nM | Kd (HLA-C*04:01 [2]; [10]): 3230 nM | Kd (HLA-B*15:01; [10]): 541 nM | Kd (HLA-B*40:13; [10]): 365 nM | Kd (HLA-A*32:15; [10]): 248 nM | Kd (HLA-C*06:02 [3]; [10]): ≥ 20000 nM | Kd (HLA-C*15:02; [10]): ≥ 20000 nM

Sequence: RQYERYTAL
Kd (HLA-B*15:42; [11]): 733 nM | Kd (HLA-B*48:01): 55.2 nM | Kd (HLA-B*83:01; [11]): ≥ 5000 nM | Kd (HLA-B*27:20; [11]): 0.3 nM | Kd (HLA-B*45:06; [11]): ≥ 5000 nM | Kd (HLA-A*32:07; [11]): 7.5 nM | Kd (HLA-B*40:13; [11]): 37.7 nM | Kd (HLA-C*06:02 [3]; [11]): 1810 nM

Sequence: RYDKSAADL
Kd (HLA-A*24:03; [12]): 474 nM | Kd (HLA-B*39:01; [12]): ≥ 20000 nM | Kd (HLA-C*04:01 [4]; [12]): ≥ 20000 nM

Kd (HLA-A*24:02; [13]): 86.6 nM | Kd (HLA-C*15:02; [13]): 3660 nM
Sequence: TTLSIYFLL

Sequence: VGYYTFHPK
Kd (HLA-B*15:42; [14]): ≥ 5000 nM | Kd (HLA-B*83:01; [14]): ≥ 5000 nM | Kd (HLA-B*45:06; [14]): ≥ 5000 nM | Kd (HLA-C*04:01 [2]; [14]): ≥ 5000 nM | Kd (HLA-A*03:01 [5]): 0.9 nM

Sequence: YFIFVRAIL
Kd (HLA-A*24:03; [15]): 36.7 nM | Kd (HLA-C*12:03): 436 nM | Kd (HLA-C*04:01 [4]; [15]): ≥ 20000 nM

Kd (HLA-A*02:11): ≤ 0.1 nM | Kd (HLA-A*02:06): ≤ 0.1 nM | Kd (HLA-A*69:01): 639 nM | Kd (HLA-A*02:01 [6]; source organism: Haemophilus influenzae): 135 nM | Kd (HLA-A*01:01): 625 nM
Sequence: YINMAWNLV

Sequence: YTFTSLFSL
Kd (HLA-B*15:42; [16]): ≥ 5000 nM | Kd (HLA-A*26:01): ≥ 20000 nM | Kd (HLA-C*14:02; [16]): 5.8 nM | Kd (HLA-A*03:19): 3070 nM | Kd (HLA-A*68:23; [16]): 14.2 nM | Kd (HLA-B*51:01): ≥ 20000 nM | Kd (HLA-B*83:01; [16]): ≥ 5000 nM | Kd (HLA-B*27:03): ≥ 20000 nM | Kd (HLA-B*45:06; [16]): ≥ 5000 nM | Kd (HLA-C*06:02 [7]): 146 nM | Kd (HLA-A*32:07; [16]): 856 nM | Kd (HLA-B*18:01): ≥ 20000 nM | Kd (HLA-A*32:15; [16]): 82.2 nM | Kd (HLA-A*02:01 [6]; source organism: Itapua hantavirus): 1.5 nM | Kd (HLA-C*05:01): ≥ 20000 nM | Kd (HLA-A*03:01 [8]): ≥ 20000 nM
